Measured values as given in US20050278809A1 (HER MAJESTY THE QUEEN IN RIGHT OF CANADA AS REPRESENTED BY …, published 2005).

T1: GST-HDA19 fusion protein (recombinant Arabidopsis thaliana HDA19 fused to glutathione S-transferase) (Arabidopsis thaliana, UniProt O22446 1-501)
T1 construct: Expressed in E. coli BL21-CodonPlus (DE3)-RP from pGEX-6P-2 (SalI/NotI) and purified under non-denaturing conditions; also called recombinant HDA19; not shown: glutathione S-transferase (GST) encoded by vector pGEX-6P-2 (Amersham Pharmacia)
T1 sequence (looked up): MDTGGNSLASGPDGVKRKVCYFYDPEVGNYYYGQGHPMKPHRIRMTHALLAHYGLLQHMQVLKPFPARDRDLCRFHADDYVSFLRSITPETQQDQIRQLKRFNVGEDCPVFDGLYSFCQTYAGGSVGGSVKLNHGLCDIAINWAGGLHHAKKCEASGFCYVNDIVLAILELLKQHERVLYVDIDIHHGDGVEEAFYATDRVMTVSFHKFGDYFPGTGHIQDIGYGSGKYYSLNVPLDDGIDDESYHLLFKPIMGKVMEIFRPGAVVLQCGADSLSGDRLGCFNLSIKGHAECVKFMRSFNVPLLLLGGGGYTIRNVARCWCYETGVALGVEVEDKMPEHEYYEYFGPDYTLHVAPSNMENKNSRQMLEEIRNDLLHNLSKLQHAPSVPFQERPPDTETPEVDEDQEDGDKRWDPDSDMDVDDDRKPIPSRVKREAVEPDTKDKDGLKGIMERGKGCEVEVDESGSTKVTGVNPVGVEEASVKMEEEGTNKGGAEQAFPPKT

T2: GST-Gcn5 fusion protein (recombinant Arabidopsis HAT Gcn5 fused to glutathione S-transferase) (Arabidopsis, UniProt Q9AR19 1-568)
T2 construct: Expressed in E. coli from pGEX-6P-2 (SalI/NotI); also called GCN5 (HAT); histone acetyltransferase (HAT); not shown: glutathione S-transferase (GST) encoded by vector pGEX-6P-2 (Amersham Pharmacia)
T2 sequence (looked up): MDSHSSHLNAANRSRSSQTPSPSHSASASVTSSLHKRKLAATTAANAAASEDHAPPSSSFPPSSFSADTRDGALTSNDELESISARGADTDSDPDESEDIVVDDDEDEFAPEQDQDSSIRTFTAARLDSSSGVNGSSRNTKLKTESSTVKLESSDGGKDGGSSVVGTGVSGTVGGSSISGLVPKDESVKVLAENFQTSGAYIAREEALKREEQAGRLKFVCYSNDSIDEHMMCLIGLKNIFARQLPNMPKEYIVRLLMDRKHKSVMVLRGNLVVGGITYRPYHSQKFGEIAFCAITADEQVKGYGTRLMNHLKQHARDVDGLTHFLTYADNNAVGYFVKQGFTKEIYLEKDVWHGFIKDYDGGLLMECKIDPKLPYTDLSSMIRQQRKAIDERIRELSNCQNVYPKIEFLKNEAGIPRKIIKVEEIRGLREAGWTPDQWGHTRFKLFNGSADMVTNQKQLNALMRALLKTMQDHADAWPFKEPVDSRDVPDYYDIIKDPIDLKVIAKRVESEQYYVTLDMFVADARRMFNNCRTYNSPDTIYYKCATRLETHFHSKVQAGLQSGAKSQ


Tests used:
Test in all cases: GST pulldown, [35S]Met-labelled in vitro translated protein
[1] = target: T3, GST alone (negative control) (UniProt P08515 1-218 = GST)
T3 construct: Negative control in the GST pulldown assays (6 µg per reaction)
T3 sequence (P08515 whole entry): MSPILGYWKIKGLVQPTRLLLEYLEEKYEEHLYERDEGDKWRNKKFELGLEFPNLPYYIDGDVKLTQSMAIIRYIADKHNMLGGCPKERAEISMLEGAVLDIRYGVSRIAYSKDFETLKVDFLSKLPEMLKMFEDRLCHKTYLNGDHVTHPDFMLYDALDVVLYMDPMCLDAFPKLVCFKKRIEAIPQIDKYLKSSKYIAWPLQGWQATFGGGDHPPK

[2] = target: T1, GST-HDA19 fusion protein (recombinant …)
[3] = target: T2, GST-Gcn5 fusion protein (recombinant …)

binding result [1]	binding result [2]	binding result [3]	Binder
no binding			BnSCL1 (Brassica napus SCARECROW-like protein 1), full-length, in vitro translated (other, not shown: small tags and cut ends, labeled with [^35S]methionine, also called wild type BnSCL1) MDEHAMRSMDWDSIMKELEVDDDSAPYQLQPSSFNLPVFPDIDSSDVYPGPNQITGYGFNSLDSVDNGGFDYIEDLIRVVDCIESDELHLAHVVLSQLNQRLQTSAGRPLQRAAFYFKEALGSLLTGTNRNQLFSWSDIVQKIRAIKEFSGISPIPLFSHFTANQAILDSLSSQSSSPFVHVVDFEIGFGGQYASLMREIAEKSANGGFLRVTAVVAEDCAVETRLVKENLTQFAAEMKIRFQIEFVLMKTFEILSFKAIRFVDGERTVVLISPAIFRRVIGIAEFVNNLGRVSPNVVVFVDSEGCTETAGSGSFRREFVSAFEFYTMVLESLDAAAPPGDLVKKIVETFLLRPKISAAVETAANRRSAGQMTWREMLCAAGMRPVQLSQFADFQAECLLEKAQVRGFHVAKRQGELVLCWHGRALVATSAWRF
	no binding	no binding	ΔbnKCP1^1-80 (residues 1-80), in vitro translated (other, labeled with [^35S]methionine, C-terminal truncation lacking the KID domain, translated in vitro from pET-28b; Vector-encoded residues are not described) MAGGGPTFSIELSAYGSDLPTDKASGDIPNEEGSGLSRVGSGIWSGRTVDYSSESSSSIGTPGDSEEEDEESEEDNDEEE
	no binding		ΔBnSCL1^1-145, in vitro translated (other, not shown: small tags and cut ends, labeled with [^35S]methionine, C-terminal truncation lacking the VHIID motif) MDEHAMRSMDWDSIMKELEVDDDSAPYQLQPSSFNLPVFPDIDSSDVYPGPNQITGYGFNSLDSVDNGGFDYIEDLIRVVDCIESDELHLAHVVLSQLNQRLQTSAGRPLQRAAFYFKEALGSLLTGTNRNQLFSWSDIVQKIRA
	no binding	no binding	ΔbnKCP1^1-160 (residues 1-160), in vitro translated (other, labeled with [^35S]methionine, C-terminal truncation lacking the KID domain, translated in vitro from pET-28b; Vector-encoded residues are not described) MAGGGPTFSIELSAYGSDLPTDKASGDIPNEEGSGLSRVGSGIWSGRTVDYSSESSSSIGTPGDSEEEDEESEEDNDEEELGLASLRSLEDSLPSKGLSSHYKGKSKSFGNLGEIGSVKEVPKQENPLNKKRRLQIYNKLARKSFYSWQNPKSMPLLPVH
no binding			bnKCP1 (B. napus KID-containing protein 1), full-length, in vitro translated (other, labeled with [^35S]methionine, Produced by TNT-Quick coupled in vitro transcription/translation from pET-28b (HindIII/XhoI); also called wild type bnKCP1; pET-28b bnKCP1) MAGGGPTFSIELSAYGSDLPTDKASGDIPNEEGSGLSRVGSGIWSGRTVDYSSESSSSIGTPGDSEEEDEESEEDNDEEELGLASLRSLEDSLPSKGLSSHYKGKSKSFGNLGEIGSVKEVPKQENPLNKKRRLQIYNKLARKSFYSWQNPKSMPLLPVHEDNDDEEGDDGDLSDEERGGDVLARRPSFKNRALKSMSCFALSDLQEEEEEEEDE
